Data reported in doi:10.1101/2020.04.20.050518.

Target: 50S ribosomal subunit
Experiment: cryo-EM 2D classification

50S ribosomal subunit (complex) was tested. Which stoichiometry N did it give?
Its stoichiometry N is 2.
